Columns and labels:
Rat c-Met-Flis-Fc ECD [1] = molecular target: T1, Rat c-Met-Flis-Fc ECD (rat); test: SPR (Biacore), antibody captured
T1 construct: also called Rat cMet-ECD-Fc-Flis; rat c-Met ECD
Protocol: (§1) A Biacore® 2000 instrument is used to measure the binding kinetics of c-Met antibodies to human, cynomolgus monkey, and rat c-Met ECDs. Measurements are performed at 25° C. Samples are dissolved in HBS-EP buffer (150 mM sodium chloride, 3 mM EDTA, 0.005% (w/v) surfactant P-20, and 10 mM N-2-hydroxyethylpiperazine-N′-2-ethanesulfonic acid (HEPES) at pH 7.4; #BR-1001-88).
(§2) Binding is evaluated using multiple cycles. Each cycle is performed at a flow rate of 50 μL/min., and consists of the following steps: injection of about 10 μL of a c-Met antibody at 10 μg/mL aiming at a capture of 40-100 RUs, injection of 250 μL of human, cynomolgus, or rat c-Met-Flis-Fc ECD (starting at 100 nM and using two-fold serial dilutions for each cycle) followed by 20 min. for dissociation, and regeneration using about 30 μL of 10 mM glycine hydrochloride, pH 1.5. Association and dissociation rates for each cycle are evaluated using a “1:1 (Langmuir) binding” model in the BIAevaluation software, version 4.1.

mouse c-Met ECD = molecular target: T2, mouse c-Met ECD (mouse, UniProt P16056 25-931); test: ELISA, coated ECD (data not shown)
T2 construct: extracellular domain

Human c-Met-Flis-Fc ECD [2] = molecular target: T3, Human c-Met-Flis-Fc ECD (human); test: ELISA, coated ECD-Fc, antibody 0.000 ng/mL
T3 construct: also called human c-Met extracellular domain (ECD)-Fc-Flis fusion; Human cMet-ECD-Fc-Flis
Protocol: (§3) Wells of 96-well EIA/RIA high binding plates (Costar, #2592) are coated with 100 μL of 1 μg/mL human c-Met extracellular domain (ECD)-Fc-Flis fusion (SEQ ID NO:72), RON-ECD-Fc (R&D Systems, #1947-MS), or PlexinA2-ECD-Fc (Abnova, Taipei, Taiwan #H00005362-P01) in coating buffer (BioFX Labs, # COAT-1000-01) overnight at 4° C. […] After the plates are washed, 100 μL/well of substrate solution (BioFx, #TMBW-1000-01) are added and the plates are incubated for 10 min. at room temperature. 100 μL/well of stop solution (BioFx, # LSTP-1000-01) are added to stop the reaction. The colorimetric signals are developed and read at 450 nm using a SpectraMax 190 plate reader (Molecular Devices, Sunnyvale, Calif.). c-Met antibody binding to c-Met, RON and PlexinA2 ECDs is proportional to color signal production.

Human c-Met-Flis-Fc ECD [3] = molecular target: T3, Human c-Met-Flis-Fc ECD; test: ELISA, coated ECD-Fc, antibody 0.002 ng/mL
Protocol: as §3

Human c-Met-Flis-Fc ECD [4] = molecular target: T3, Human c-Met-Flis-Fc ECD; test: ELISA, coated ECD-Fc, antibody 0.010 ng/mL
Protocol: as §3

Human c-Met-Flis-Fc ECD [5] = molecular target: T3, Human c-Met-Flis-Fc ECD; test: ELISA, coated ECD-Fc, antibody 0.060 ng/mL
Protocol: as §3

Human c-Met-Flis-Fc ECD [6] = molecular target: T3, Human c-Met-Flis-Fc ECD; test: ELISA, coated ECD-Fc, antibody 0.357 ng/mL
Protocol: as §3

Human c-Met-Flis-Fc ECD [7] = molecular target: T3, Human c-Met-Flis-Fc ECD; test: ELISA, coated ECD-Fc, antibody 2.143 ng/mL
Protocol: as §3

Human c-Met-Flis-Fc ECD [8] = molecular target: T3, Human c-Met-Flis-Fc ECD; test: ELISA, coated ECD-Fc, antibody 12.860 ng/mL
Protocol: as §3

Human c-Met-Flis-Fc ECD [9] = molecular target: T3, Human c-Met-Flis-Fc ECD; test: ELISA, coated ECD-Fc, antibody 77.160 ng/mL
Protocol: as §3

Human c-Met-Flis-Fc ECD [10] = molecular target: T3, Human c-Met-Flis-Fc ECD; test: ELISA, coated ECD-Fc, antibody 462.963 ng/mL
Protocol: as §3

Human c-Met-Flis-Fc ECD [11] = molecular target: T3, Human c-Met-Flis-Fc ECD; test: ELISA, coated ECD-Fc, antibody 2777.778 ng/mL
Protocol: as §3

Human c-Met-Flis-Fc ECD [12] = molecular target: T3, Human c-Met-Flis-Fc ECD; test: ELISA, coated ECD-Fc, antibody 16666.667 ng/mL
Protocol: as §3

Human c-Met-Flis-Fc ECD [13] = molecular target: T3, Human c-Met-Flis-Fc ECD; test: ELISA, coated ECD-Fc, antibody 100000.000 ng/mL
Protocol: as §3

Human c-Met-Flis-Fc ECD [14] = molecular target: T3, Human c-Met-Flis-Fc ECD; test: SPR Biacore, antibody captured, ECD-Fc analyte, 1:1 model
Protocol: as §1, §2

[15] = molecular target: T4, Cynomolgus Monkey c-Met-Flis-Fc ECD (cynomolgus monkey); test: as above
T4 construct: also called Cynomolgus Monkey cMet-ECD-Fc-Flis; cynomolgus monkey c-Met ECD
Protocol: as §1, §2

Rat c-Met-Flis-Fc ECD [16] = molecular target: T1, Rat c-Met-Flis-Fc ECD; test: SPR Biacore, antibody captured, heterogeneous ligand model, first affinity
Protocol: as §1
(§4) Binding is evaluated using multiple cycles. Each cycle is performed at a flow rate of 50 μL/min., and consists of the following steps: injection of about 10 μL of a c-Met antibody at 10 μg/mL aiming at a capture of 40-100 RUs, injection of 250 μL of human, cynomolgus, or rat c-Met-Flis-Fc ECD (starting at 100 nM and using two-fold serial dilutions for each cycle) followed by 20 min. for dissociation, and regeneration using about 30 μL of 10 mM glycine hydrochloride, pH 1.5. […]

Rat c-Met-Flis-Fc ECD [17] = molecular target: T1, Rat c-Met-Flis-Fc ECD; test: SPR Biacore, antibody captured, heterogeneous ligand model, second affinity
Protocol: as §1, §4

T1 sequence (chain, as listed by the source limits assumed): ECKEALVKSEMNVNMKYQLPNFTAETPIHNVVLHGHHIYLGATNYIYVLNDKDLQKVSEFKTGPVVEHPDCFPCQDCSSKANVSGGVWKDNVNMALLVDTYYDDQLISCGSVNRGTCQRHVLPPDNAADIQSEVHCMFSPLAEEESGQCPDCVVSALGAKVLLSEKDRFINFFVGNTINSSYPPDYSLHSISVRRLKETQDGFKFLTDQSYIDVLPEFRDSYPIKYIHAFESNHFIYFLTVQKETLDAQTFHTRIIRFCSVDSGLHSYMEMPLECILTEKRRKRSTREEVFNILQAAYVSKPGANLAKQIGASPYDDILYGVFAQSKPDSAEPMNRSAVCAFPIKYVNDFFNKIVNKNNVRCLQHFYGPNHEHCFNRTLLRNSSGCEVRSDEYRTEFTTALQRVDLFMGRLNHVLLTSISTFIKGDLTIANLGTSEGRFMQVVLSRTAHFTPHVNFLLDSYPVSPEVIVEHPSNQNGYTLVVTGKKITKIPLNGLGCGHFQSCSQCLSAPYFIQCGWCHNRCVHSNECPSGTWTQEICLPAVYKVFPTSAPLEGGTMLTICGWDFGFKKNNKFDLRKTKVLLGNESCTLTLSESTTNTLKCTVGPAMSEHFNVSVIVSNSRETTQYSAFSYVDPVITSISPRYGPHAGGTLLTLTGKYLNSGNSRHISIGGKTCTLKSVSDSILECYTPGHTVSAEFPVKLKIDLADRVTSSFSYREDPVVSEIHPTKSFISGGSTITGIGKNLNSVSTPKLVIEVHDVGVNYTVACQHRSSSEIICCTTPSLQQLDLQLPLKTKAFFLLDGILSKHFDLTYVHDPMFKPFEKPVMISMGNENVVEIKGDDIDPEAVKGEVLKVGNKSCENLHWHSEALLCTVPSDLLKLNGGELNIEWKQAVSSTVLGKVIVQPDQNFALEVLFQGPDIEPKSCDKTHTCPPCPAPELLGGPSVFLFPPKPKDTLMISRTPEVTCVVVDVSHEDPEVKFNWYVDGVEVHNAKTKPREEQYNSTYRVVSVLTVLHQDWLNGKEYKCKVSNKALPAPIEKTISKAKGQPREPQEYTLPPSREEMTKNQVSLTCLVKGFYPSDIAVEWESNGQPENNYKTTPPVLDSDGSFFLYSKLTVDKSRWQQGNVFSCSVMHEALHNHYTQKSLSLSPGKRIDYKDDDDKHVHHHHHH
T4 sequence (chain, as listed by the source limits assumed): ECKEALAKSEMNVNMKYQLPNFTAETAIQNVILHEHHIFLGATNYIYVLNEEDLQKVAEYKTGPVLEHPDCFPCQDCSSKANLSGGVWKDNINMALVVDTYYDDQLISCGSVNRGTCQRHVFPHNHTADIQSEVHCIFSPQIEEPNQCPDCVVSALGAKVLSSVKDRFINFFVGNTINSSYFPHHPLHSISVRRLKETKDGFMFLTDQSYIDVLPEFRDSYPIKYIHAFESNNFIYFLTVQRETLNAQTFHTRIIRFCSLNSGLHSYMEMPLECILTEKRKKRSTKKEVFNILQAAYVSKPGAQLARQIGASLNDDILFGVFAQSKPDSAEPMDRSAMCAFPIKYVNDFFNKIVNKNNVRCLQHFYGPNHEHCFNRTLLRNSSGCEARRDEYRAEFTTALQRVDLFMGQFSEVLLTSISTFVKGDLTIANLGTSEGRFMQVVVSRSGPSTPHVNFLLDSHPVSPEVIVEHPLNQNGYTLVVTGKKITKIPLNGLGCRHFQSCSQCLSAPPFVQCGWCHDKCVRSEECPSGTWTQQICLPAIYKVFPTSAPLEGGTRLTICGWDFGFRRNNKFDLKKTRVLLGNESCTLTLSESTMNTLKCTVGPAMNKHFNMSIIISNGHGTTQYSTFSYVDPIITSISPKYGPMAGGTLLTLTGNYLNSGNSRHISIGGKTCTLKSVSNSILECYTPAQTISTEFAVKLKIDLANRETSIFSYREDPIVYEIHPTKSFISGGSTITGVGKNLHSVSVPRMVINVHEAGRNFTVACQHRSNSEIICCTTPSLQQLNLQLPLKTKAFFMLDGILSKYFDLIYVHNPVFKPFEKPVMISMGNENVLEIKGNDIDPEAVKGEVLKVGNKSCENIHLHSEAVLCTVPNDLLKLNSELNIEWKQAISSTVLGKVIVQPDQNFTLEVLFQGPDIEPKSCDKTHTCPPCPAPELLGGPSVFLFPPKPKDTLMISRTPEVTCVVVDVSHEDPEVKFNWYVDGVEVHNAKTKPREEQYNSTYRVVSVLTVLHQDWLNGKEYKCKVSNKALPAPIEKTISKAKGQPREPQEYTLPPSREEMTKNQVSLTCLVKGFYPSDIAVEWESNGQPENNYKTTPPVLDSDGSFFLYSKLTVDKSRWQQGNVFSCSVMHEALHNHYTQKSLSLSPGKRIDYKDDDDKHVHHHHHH
T3 sequence (chain, as listed by the source limits assumed): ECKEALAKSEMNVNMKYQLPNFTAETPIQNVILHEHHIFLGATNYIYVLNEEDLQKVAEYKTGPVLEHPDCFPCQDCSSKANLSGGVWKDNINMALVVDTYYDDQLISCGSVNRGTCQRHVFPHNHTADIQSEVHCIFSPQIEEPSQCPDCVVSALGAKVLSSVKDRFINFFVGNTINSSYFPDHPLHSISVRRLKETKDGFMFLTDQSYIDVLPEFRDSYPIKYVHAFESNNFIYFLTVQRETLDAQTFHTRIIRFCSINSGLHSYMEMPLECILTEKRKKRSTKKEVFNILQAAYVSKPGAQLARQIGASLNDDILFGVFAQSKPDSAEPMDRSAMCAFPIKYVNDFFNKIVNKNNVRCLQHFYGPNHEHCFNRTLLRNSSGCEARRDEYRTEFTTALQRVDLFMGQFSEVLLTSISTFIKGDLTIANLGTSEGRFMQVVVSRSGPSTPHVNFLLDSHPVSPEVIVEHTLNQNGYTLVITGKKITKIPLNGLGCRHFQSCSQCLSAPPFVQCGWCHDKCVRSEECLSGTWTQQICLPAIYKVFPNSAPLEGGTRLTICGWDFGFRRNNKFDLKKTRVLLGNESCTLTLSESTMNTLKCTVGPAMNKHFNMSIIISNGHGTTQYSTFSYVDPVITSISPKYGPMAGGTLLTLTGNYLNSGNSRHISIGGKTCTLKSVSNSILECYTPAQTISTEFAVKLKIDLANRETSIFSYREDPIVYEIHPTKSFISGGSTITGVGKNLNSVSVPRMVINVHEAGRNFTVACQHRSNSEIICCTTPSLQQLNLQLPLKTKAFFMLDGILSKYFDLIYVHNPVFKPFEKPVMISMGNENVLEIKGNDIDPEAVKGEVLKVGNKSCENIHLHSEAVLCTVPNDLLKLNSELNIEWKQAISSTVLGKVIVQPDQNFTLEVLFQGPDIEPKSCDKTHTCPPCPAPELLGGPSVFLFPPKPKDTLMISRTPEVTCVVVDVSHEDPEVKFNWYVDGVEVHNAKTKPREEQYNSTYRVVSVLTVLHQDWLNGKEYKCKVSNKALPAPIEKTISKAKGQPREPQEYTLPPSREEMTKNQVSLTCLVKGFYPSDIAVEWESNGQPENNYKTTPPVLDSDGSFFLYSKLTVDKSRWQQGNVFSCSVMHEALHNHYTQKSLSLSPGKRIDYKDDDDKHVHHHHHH
T2 sequence (P16056 25-931): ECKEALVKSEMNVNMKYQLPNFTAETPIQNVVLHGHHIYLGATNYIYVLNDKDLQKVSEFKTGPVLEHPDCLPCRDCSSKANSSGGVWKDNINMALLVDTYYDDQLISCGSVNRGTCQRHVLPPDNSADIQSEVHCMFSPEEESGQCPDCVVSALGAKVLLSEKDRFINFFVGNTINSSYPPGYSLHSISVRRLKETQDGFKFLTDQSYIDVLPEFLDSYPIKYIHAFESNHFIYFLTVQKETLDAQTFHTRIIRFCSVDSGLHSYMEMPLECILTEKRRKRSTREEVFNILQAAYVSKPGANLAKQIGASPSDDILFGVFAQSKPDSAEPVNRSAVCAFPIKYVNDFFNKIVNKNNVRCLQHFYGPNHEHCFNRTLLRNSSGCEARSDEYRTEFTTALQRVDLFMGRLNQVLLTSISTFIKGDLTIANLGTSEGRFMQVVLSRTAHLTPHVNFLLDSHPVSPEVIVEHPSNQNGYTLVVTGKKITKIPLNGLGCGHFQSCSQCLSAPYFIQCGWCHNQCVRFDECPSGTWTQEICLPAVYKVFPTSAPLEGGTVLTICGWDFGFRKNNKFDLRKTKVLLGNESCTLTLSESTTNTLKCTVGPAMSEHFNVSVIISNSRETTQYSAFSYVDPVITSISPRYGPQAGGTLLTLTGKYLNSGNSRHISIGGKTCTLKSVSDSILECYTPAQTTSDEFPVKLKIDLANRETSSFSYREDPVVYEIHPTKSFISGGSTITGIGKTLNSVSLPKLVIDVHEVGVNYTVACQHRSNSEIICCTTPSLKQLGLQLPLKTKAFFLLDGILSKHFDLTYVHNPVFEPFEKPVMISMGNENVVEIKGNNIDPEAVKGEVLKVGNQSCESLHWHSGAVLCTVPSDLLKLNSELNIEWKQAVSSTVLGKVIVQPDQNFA

| Average A450 nm (Human c-Met-Flis-Fc ECD [2]) [A450 nm] | Average A450 nm (Human c-Met-Flis-Fc ECD [3]) [A450 nm] | Average A450 nm (Human c-Met-Flis-Fc ECD [4]) [A450 nm] | Average A450 nm (Human c-Met-Flis-Fc ECD [5]) [A450 nm] | Average A450 nm (Human c-Met-Flis-Fc ECD [6]) [A450 nm] | Average A450 nm (Human c-Met-Flis-Fc ECD [7]) [A450 nm] | Average A450 nm (Human c-Met-Flis-Fc ECD [8]) [A450 nm] | Average A450 nm (Human c-Met-Flis-Fc ECD [9]) [A450 nm] | Average A450 nm (Human c-Met-Flis-Fc ECD [10]) [A450 nm] | Average A450 nm (Human c-Met-Flis-Fc ECD [11]) [A450 nm] | Average A450 nm (Human c-Met-Flis-Fc ECD [12]) [A450 nm] | Average A450 nm (Human c-Met-Flis-Fc ECD [13]) [A450 nm] | Kd (Human c-Met-Flis-Fc ECD [14]) [nM] | koff (Human c-Met-Flis-Fc ECD [14]) [s⁻¹] | kon (Human c-Met-Flis-Fc ECD [14]) [M⁻¹ s⁻¹] | Kd [15] [nM] | koff [15] [s⁻¹] | kon [15] [M⁻¹ s⁻¹] | Binder | other results |
| --- | --- | --- | --- | --- | --- | --- | --- | --- | --- | --- | --- | --- | --- | --- | --- | --- | --- | --- | --- |
| 0.335 | 0.369 | 0.374 | 0.446 | 0.907 | 2.89 | 4 | 4 | 4 | 4 | 4 | 4 | 0.3 | 3e-05 | 110000 | < 0.1 | < 1e-05 | 103000 | C8-co-16 (antibody, human IgG2, kappa, V domains shown, Called IgG4, kappa) VH: QVQLVQSGAEVKKPGASVKVSCKASGYTFTDYYMHWVRQAPGQGLEWMGRVNPYRGSTTYNQKFEGRVTMTTDTSTSTAYMELRSLRSDDTAVYYCARANILDYWGQGTTVTVSS VL: DIQMTQSPSSLSASVGDRVTITCSVSSSVRSIYLHWYQQKPGKAPKLLIYSTSNLASGVPSRFSGSGSGTDFTLTISSLQPEDFATYYCQVYRGYPLTFGGGTKVEIKR | binding result (Rat c-Met-Flis-Fc ECD [1]): no binding; binding result (mouse c-Met ECD): no binding (tested: 100 nM) |
| 0.315 | 0.309 | 0.314 | 0.374 | 0.789 | 2.14 | 4 | 4 | 4 | 4 | 4 | 4 | 4.2 | 0.00028 | 70000 | 5.1 | 0.00036 | 70000 | D11-S17Y (antibody, human IgG2, kappa, V domains shown, Human engineered IgG2, kappa) VH: QVQLVQSGAEVKKPGSSVKVSCKASGYTFTSRYIHWVRQAPGQGLEWMGWIYPVTGDTYYNEKFKGRVTITADKSTSTAYMELSSLRSEDTAVYYCARGYGAFYYWGQGTLVTVSS VL: EIVLTQSPGTLSLSPGERATLSCSVSSSISSTNLHWYQQKPGQAPRLLIYGTSYLASGIPDRFSGSGSGTDFTLTISRLEPEDFAVYYCQQWSSYPYSFGQGTKLEIKR | Kd (Rat c-Met-Flis-Fc ECD [16]): 286 nM; koff (Rat c-Met-Flis-Fc ECD [16]): 0.0189 s⁻¹; kon (Rat c-Met-Flis-Fc ECD [16]): 66000 M⁻¹ s⁻¹; Kd (Rat c-Met-Flis-Fc ECD [17]): 1.2 nM; koff (Rat c-Met-Flis-Fc ECD [17]): 0.0003 s⁻¹; kon (Rat c-Met-Flis-Fc ECD [17]): 250000 M⁻¹ s⁻¹ |

— US20100129369A1 (Eli Lilly, published 2010)
